# Results reported in PMC7219239, “Folding-Based Electrochemical Aptasensor for the Determination of β-Lactoglobulin on Poly-L-Lysine Modified Graphite Electrodes”.
# T1: beta-lactoglobulin B (β-LG) (Bos taurus? (cow's milk), UniProt P02754 17-178)
# T1 sequence: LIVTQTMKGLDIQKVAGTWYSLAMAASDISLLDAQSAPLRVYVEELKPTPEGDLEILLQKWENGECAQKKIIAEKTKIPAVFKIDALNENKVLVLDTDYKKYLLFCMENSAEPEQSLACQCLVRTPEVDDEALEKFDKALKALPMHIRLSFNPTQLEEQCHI
# B1: anti-β-LG aptamer, thiolated, MB-tagged (ssDNA)
# DNA: CGACGATCGGACCGCAGTACCCACCCACCAGCCCCAACATCATGCCCATCCGTGTGTG
# modifications: 5'-thiol (HS); 3'-methylene blue
# Biological target: T1, beta-lactoglobulin B (β-LG)
# Assay: electrochemical folding-based aptasensor (DPV, MB signal-on); PBS-based buffer without MgCl2; 45 min incubation; linear 0.1-10 ng/mL, LOD 0.09 ng/mL; no Kd in the material; Measurement in PBS-based buffer without MgCl2 (wash buffer 0.1 M PBS, 150 mM NaCl, pH 7.4), 45 min; aptamer immobilized at 1 µM in 50 mM Tris, 150 mM NaCl, 2 mM MgCl2, pH 7.4; temperature not stated
# Conditions: protein: commercial; chain copies: 2; label: methylene blue (3')
binder,measurement,value
B1,binding result,binds
